This note sets out measurements from PMC11077089, “Molecular basis of A. thaliana KEOPS complex in biosynthesizing tRNA t6A”.

Changes are numbered by the printed parent chain.

What all share (assay): MST; MST: 20 mM PBS pH 7.5, 300 mM NaCl, 0.05% Tween 20, 25 C, 50 nM RNA; EMSA: 20 mM Tris-HCl pH 7.5, 300 mM NaCl, 5 mM b-mercaptoethanol, 20% glycerol, agarose gel in Tris-glycine pH 8.0 (8.5 for FAM-RNA), 4 C
On the technique in general: In EMSA bound probe runs differently from free probe, usually more slowly.

The target in data set [1] is T1, KAE1 mutant-1;BUD32;CGI121;PCC1 (Arabidopsis thaliana;Arabidopsis …, UniProt O49653;Q94K14;Q6NMZ4;Q8GWD7 1-353;1-226;1-172;1-96, Y36R;I37K;T38R;P39R;P40R;G41W;H42D|||).
T1 sequence 1: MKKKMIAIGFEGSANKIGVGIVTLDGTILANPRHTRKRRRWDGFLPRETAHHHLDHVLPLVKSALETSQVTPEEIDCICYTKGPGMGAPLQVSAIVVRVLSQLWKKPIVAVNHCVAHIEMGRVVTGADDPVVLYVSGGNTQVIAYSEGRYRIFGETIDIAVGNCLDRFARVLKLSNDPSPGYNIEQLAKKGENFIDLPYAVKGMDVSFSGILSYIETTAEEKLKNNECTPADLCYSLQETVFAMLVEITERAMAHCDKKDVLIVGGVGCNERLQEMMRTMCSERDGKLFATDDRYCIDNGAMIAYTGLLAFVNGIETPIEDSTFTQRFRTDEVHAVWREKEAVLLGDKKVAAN
T1 sequence 2: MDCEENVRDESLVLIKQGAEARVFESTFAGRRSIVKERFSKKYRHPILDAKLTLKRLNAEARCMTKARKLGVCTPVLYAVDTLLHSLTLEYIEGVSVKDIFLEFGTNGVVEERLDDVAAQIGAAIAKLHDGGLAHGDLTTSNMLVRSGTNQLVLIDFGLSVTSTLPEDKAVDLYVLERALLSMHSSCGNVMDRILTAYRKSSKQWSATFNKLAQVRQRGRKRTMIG
T1 sequence 3: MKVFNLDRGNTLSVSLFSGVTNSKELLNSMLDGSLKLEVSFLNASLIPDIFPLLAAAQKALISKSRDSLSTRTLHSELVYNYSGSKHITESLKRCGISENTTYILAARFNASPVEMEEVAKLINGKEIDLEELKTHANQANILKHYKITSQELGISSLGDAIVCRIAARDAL
T1 sequence 4: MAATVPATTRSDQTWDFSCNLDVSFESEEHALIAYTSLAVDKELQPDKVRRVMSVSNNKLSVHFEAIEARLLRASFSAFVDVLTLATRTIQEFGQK
To be noted: protein: recombinant;recombinant;recombinant;recombinant; tags: ;none (6His on partner CGI121);6His (C-term);6His (C-term); chain copies: 2;2;2;2; label: 5' 6-FAM; tRNA cloverleaf.

Data set [2] has as its target T2, KAE1;BUD32 K55E;CGI121;PCC1 (Arabidopsis thaliana;Arabidopsis …, UniProt O49653;Q94K14;Q6NMZ4;Q8GWD7 1-353;1-226;1-172;1-96, |K55E||).
T2 sequence 1: T1 sequence 1 with R36Y, K37I, R38T, R39P, R40P, W41G, D42H
T2 sequence 2: T1 sequence 2 with K55E
T2 sequence 3: T1 sequence 3
T2 sequence 4: T1 sequence 4
To be noted: protein: recombinant;recombinant;recombinant;recombinant; tags: none (6His on partner PCC1);;6His (C-term);6His (C-term); chain copies: 2;2;2;2; label: 5' 6-FAM; tRNA cloverleaf.

The target in data set [3] is T3, KAE1;BUD32 T162R;CGI121;PCC1 (Arabidopsis thaliana;Arabidopsis …, UniProt O49653;Q94K14;Q6NMZ4;Q8GWD7 1-353;1-226;1-172;1-96, |T162R||).
T3 sequence 1: T1 sequence 1 with R36Y, K37I, R38T, R39P, R40P, W41G, D42H
T3 sequence 2: T1 sequence 2 with T162R
T3 sequence 3: T1 sequence 3
T3 sequence 4: T1 sequence 4
To be noted: protein: recombinant;recombinant;recombinant;recombinant; tags: none (6His on partner PCC1);;6His (C-term);6His (C-term); chain copies: 2;2;2;2; label: 5' 6-FAM; tRNA cloverleaf.

For data set [4], the target named is T4, KAE1;BUD32 S163R;CGI121;PCC1 (Arabidopsis thaliana;Arabidopsis …, UniProt O49653;Q94K14;Q6NMZ4;Q8GWD7 1-353;1-226;1-172;1-96, |S163R||).
T4 sequence 1: T1 sequence 1 with R36Y, K37I, R38T, R39P, R40P, W41G, D42H
T4 sequence 2: T1 sequence 2 with S163R
T4 sequence 3: T1 sequence 3
T4 sequence 4: T1 sequence 4
To be noted: protein: recombinant;recombinant;recombinant;recombinant; tags: none (6His on partner PCC1);;6His (C-term);6His (C-term); chain copies: 2;2;2;2; label: 5' 6-FAM; tRNA cloverleaf.

B1: 5'-6FAM-tRNAArgCCU (structured_RNA)
RNA: GCGCCUGUAGCUCAGUGGAUAGAGCGUCUGUUUCCUAAGCAGAAGGUCGUAGGUUCGACCCCUACCUGGCGCGCCA
For orientation: Kd means the free concentration of one partner at which half of the binding sites on the other are occupied at equilibrium, for simple one-to-one binding. Turning to B1, the Kd is 5.27 ± 1.2 µM in data set [1], 104 ± 15.2 µM in data set [2], 10.5 ± 2.99 µM in data set [3] and 330 ± 11.1 µM in data set [4].
